The subject of data set [1] is solid tumors expressing CD56. The note with it: several phase I studies; in words; cited from earlier work.
In a further data set the test system is H69. In words: XTT assay, ADC-mediated cytotoxicity. The note with it: 4 days, read-out: H69 n = 3 IC50. It counts as cell-based. On the procedure: (§1) To evaluate cell viability and cellular metabolic activity, XTT assays were performed according to standard protocols. WaGa, PeTa, H69, H209, H660 cell lines were plated in 3 replicates in a 96-well plate with 5.10^4 cells/well. […] Untreated cells were used as viability reference. Cells treated with 1% Triton X100 were used as cell death positive control. After 4 days, 25 μL XTT reagent at 1 mg/mL (Alfa Aesar, thermo Fisher) with N-methyl dibenzopyrazine methyl sulfate (PMS) activator (25 μM) was added per well and absorbance was measured at 450 nm after 4 h incubation. Absorbance at 620 nm was used as a reference. Three independent experiments have been performed.
On the technique in general: Formazan colour is commonly taken as a measure of viable cells.

The subject of the next data set is H209. In words: XTT assay, ADC-mediated cytotoxicity. Format: cell-based. The note with it: 4 days, read-out: H209 n = 3 IC50. As for the experimental part:
as §1

A further data set relates to WaGa. In words: XTT assay, ADC-mediated cytotoxicity. Format: cell-based. The note with it: 4 days, read-out: WaGa n = 3 IC50. As for the experimental part:
as §1

The next data set deals with WaGa CRISPR CD56. In words: XTT assay, ADC-mediated cytotoxicity. Format: cell-based. Conditions: 4 days, CD56− cells, read-out: WaGa CRISPR CD56 n = 3 IC50. As for the experimental part: as §1
For another data set, the system named is PeTa. In words: XTT assay, ADC-mediated cytotoxicity. The note with it: 4 days, read-out: PeTa n = 3 IC50. It counts as cell-based. As for the experimental part:
as §1

For the next data set, the system named is MKL-1 CRISPR CD56. In words: XTT assay, ADC-mediated cytotoxicity. Format: cell-based. The note with it: 4 days, CD56− cells, read-out: MKL-1 CRISPR CD56 n = 3 IC50.
The test system of a further data set is primary NK cells. Briefly: Killing effect on primary NK cells (Annexin V / 7-AAD flow cytometry). The note with it: for Killing effect on primary NK cells (ADCC): after 4 h of incubation, in words; for Killing effect on primary NK cells: after 4 days of incubation. It counts as cell-based, human. As for the experimental part: (§2) Primary natural killer cells (NK) and monocytes were obtained from blood of healthy adult volunteers at the Etablissement Français du Sang, according to institutional research protection guidelines agreement N° CA-REC-2019-188, Centre Val de Loire, France. Ficoll density centrifugation step (Eurobio) was performed to isolate peripheral blood mononuclear cells (PBMC).
NK cells were isolated from PBMC by negative selection (NK cell isolation kit human, Miltenyi Biotec) with purity higher than 95%. NK cells were cultured for up to 36 h in RPMI 1640 supplemented with 10% FCS, 1% penicillin and streptomycin, 1% L-glutamine and 100 UI/mL IL-2 at 37° C., 5% CO2 at 1.10^6 cells/mL.
On the technique in general: A flow cytometer gives signals particle by particle.

The test system of data set [2] is small cell lung carcinoma. The note with it: phase II, in combination with chemotherapy (cisplatin-etoposide); in words; cited from earlier work.
Another data set relates to neutrophils. In words: Killing effect on neutrophils (Annexin V / 7-AAD flow cytometry). Format: cell-based, human. Conditions: after 4 h of incubation; CD56 negative cells; at high concentration. The text has this: The neutrophils were isolated directly from whole blood of healthy adult volunteers at the Etablissement Français du Sang, according to institutional research protection guidelines agreement N° CA-REC-2019-188, Centre Val de Loire, France, by negative selection, using the kit (MACSxpress® Whole Blood Neutrophil Isolation Kit, MiltenyBiotech™). The neutrophils were used directly following their isolation and then resuspended in HBSS buffer (1X) (Gibco 15266355), at 1×10^6 cells/mL.
(§3) 5% of CO2. […] All products were tested after 4 days treatment on NK cells and 4 h on monocytes and neutrophils.

The subject of data set [3] is CD56− cells (CRISPR-MCC cell lines WaGa and MKL-1). In words: XTT assay, summary over CD56- CRISPR-MCC cell lines. It counts as cell-based. The note with it: at high doses; in words. On the procedure:
as §1

Another data set relates to WaGa xenograft. In words: Efficacy in vivo, WaGa xenograft, ADC 5 mg/kg twice a week. Set-up: species or system NOD/SCID mice. Conditions: 5 mg/kg IV twice a week; day 30. As for the experimental part:
Xenograft mice model: eighteen 7-week-old females NOD/SCID (Janvier Labs) mice were maintained under aseptic conditions. All animal procedures were approved by local ethics committee (Apafis #26772-2020072715262737 v2). WaGa cell line was used for tumor induction, as previously described in [9]. Mice received one subcutaneous injection of 1.10^7 WaGa cells with 10% matrigel on the back. General state and weight were monitored twice a week during the procedure. Tumor volume was measured with a caliper and tumor volume was calculated according to the formula: π/6×width×length×height. […] Mice were sacrificed 30 days after inclusion or when reaching one predefined endpoint (tumor ulceration, weight loss >20%, or prostration). Tumors, heart, lungs, spleen, and liver were removed for macroscopic examination. After dissection, tumor weight and volume were assessed. To detect metastatic spread and potential toxicity of ADCs, whole tumors and organs (heart, lungs, spleen, and liver), were formalin-fixed and paraffin embedded for microscopic evaluation to evaluate architecture changes, inflammatory infiltrate, necrosis, vascular changes, fibrosis and liver steatosis.

The next data set relates to monocytes. In words: Killing effect on monocytes (Annexin V / 7-AAD flow cytometry). It counts as cell-based, human. Conditions: after 4 h of incubation; in words. As for the experimental part:
as §2
Monocytes were isolated from PBMC by positive selection using anti-CD14 MicroBeads (Miltenyi Biotec) according to manufacturer recommendations. Monocytes were cultured in serum-free X-VIVO-15 medium (Lonza) at 1.10^6 cells/mL.
as §3

The subject of data set [4] is CD56− cells (CRISPR WaGa, PeTa, MKL-1). In words: Flow cytometry binding of Alexa Fluor 750 labelled antibodies, CD56- CRISPR cell lines. The note with it: 4° C., 30 minutes, in words. On the procedure: (§4) Binding levels of L and mAb-003 have been evaluated on several tumor cell lines: MCC (WaGa, PeTa, MKL-1), SCLC (H69, H209) and prostate cancers (H660) as well as WaGa, PeTa and MKL-1 CD56-knocked out using CRISPR technology.
(§5) The L and mAb-003 were labelled with Alexa Fluor 750 (Alexa Fluor 750 Protein Labelling Kit, Invitrogen) to allow their detection by flow cytometry. The labelled antibodies were incubated with 1.10^5 cells at 4° C. for 30 minutes, then cells were washed twice with PBS supplemented with 1% FCS, and the binding was analysed by Flow cytometry on Cytoflex.

The test system of data set [5] is CD56+ cell lines (WaGa, PeTa, MKL-1, H69, H209, H660). In words: Flow cytometry binding of Alexa Fluor 750 labelled antibodies, CD56+ cell lines. The note with it: 4° C., 30 minutes, in words. On the procedure:
as §4, §5

B1: LM: Lorvotuzumab Mertansine, anti-CD56 ADC coupled to mertansine (DM1) (conjugate, chains of the INN, looked up)
VH: QVQLVESGGGVVQPGRSLRLSCAASGFTFSSFGMHWVRQAPGKGLEWVAYISSGSFTIYYADSVKGRFTISRDNSKNTLYLQMNSLRAEDTAVYYCARMRKGYAMDYWGQGTLVTVSS
VL: DVVMTQSPLSLPVTLGQPASISCRSSQIIIHSDGNTYLEWFQQRPGQSPRRLIYKVSNRFSGVPDRFSGSGSGTDFTLKISRVEAEDVGVYYCFQGSHVPHTFGQGTKVEIK
modifications: mertansine (DM1)
As to B1, the Tolerance entry in [1] is listed as “acceptable tolerance”. For the same molecule, the IC50 (in general, the concentration at which inhibition is half-maximal) with H69 was 0.0626 µM; in the data set on H209, 0.1 µM; in the data set with WaGa it was 0.0756 µM; in the data set on WaGa CRISPR CD56, 0.0756 µM; with PeTa, 0.0269 µM; with MKL-1 CRISPR CD56, 0.0741 µM. For the same molecule, the “Killing effect on primary NK cells (ADCC)” value with primary NK cells is given as “ADCC killing effect was observed”. In data set [2], the Survival benefit entry is recorded as “did not demonstrate any survival benefit”. For the same molecule, the “Killing effect towards neutrophils” value with neutrophils is “around 15%”. For the same molecule, the “Cytotoxicity on CD56− cells” value in [3] is “nonspecific cytotoxicity”.

B2: L-002: Deglycosylated Lorvotuzumab: treated with PNGase F to remove the glycosylation at Asn297 (antibody, chains of the INN, looked up, V domains shown)
VH: B1 VH
VL: B1 VL
modifications: deglycosylated with PNGase F
notes: Deglycosylated Lorvotuzumab: treated with PNGase F to remove the glycosylation at Asn297
On to B2, for which the “Killing effect on primary NK cells” value with primary NK cells turned out to be 20%.

B3: MF-L-MMAE: L conjugated to MMAE with 6-(2,6-bis(bromomethyl)pyridin-4-yl)amido-N-hexanamide-valine-citrulline-p-aminobenzoyl carbamate (conjugate, chains of the INN, looked up)
VH: B1 VH
VL: B1 VL
modifications: MMAE via val-cit PAB linker
notes: L conjugated to MMAE with 6-(2,6-bis(bromomethyl)pyridin-4-yl)amido-N-hexanamide-valine-citrulline-p-aminobenzoyl carbamate
As to B3, the “Mean end tumor weight” value with WaGa xenograft is recorded as 0.08 g.

B4: LM-002: Deglycosylated Lorvotuzumab Mertansine: treated with PNGase F to remove the glycosylation (conjugate, chains of the INN, looked up)
VH: B1 VH
VL: B1 VL
modifications: mertansine; deglycosylated
notes: Deglycosylated Lorvotuzumab Mertansine: treated with PNGase F to remove the glycosylation
Take B4: in the data set with monocytes, the “Killing effect on monocytes” value was “negligible killing effect”.

B5: L: Lorvotuzumab (antibody, chains of the INN, looked up, V domains shown)
VH: B1 VH
VL: B1 VL
For B5, in the data set with primary NK cells, the “Killing effect on primary NK cells (ADCC)” value is recorded as “ADCC killing effect was observed” and the “Killing effect on primary NK cells” value is recorded as 40%. In addition, the “Killing effect towards neutrophils” value with neutrophils is “about 15%”. Moreover, the “Binding to CD56− cells (CRISPR cells)” value in data set [4] was “binding to CD56− cells”. In data set [5], the “Binding to CD56+ cells” value was “lower binding level”.

These data come from US20230405140A1, “ANTI-CD56 ANTIBODY-DRUG CONJUGATES AND THEIR USE IN THERAPY” (MCSAF INSIDE ONCOLOGY, priority 2020, published 2023).
